Among the data in patent EP4450093A1, “CLEAVABLE IMMUNE CELL ENGAGERS” (Synaffix B.V., priority 2023, dated 2024) are Fold induction, IL-15 bioassay values, retold here.

The test deals with IL-15 receptor on the IL-15 cells of the IL-15 bioassay (Promega, cat.# JA2015) (mouse cell line). As to the kind of experiment: cell-based or functional assay.

“trastuzumab (Herceptin), non-modified antibody” showed a Fold induction, IL-15 bioassay of 0.9 fold.
